The DeepSol protein solubility set

Assay: soluble on expression in E. coli; label from the status in PepcDB or PDB records

Soluble on expression in E. coli, not soluble:
MGSDKIHHHHHHMGIHLDFGISPKTFRQTYLYQKPKLFKGAVRNLEAASCKYINEIYQRADPTAPLFHLRKKGAIVPKEEYVESFDDLGKTRYRFIKSVIYEHMKNGASLVYNHINNEPFSDHIARQVARFAGAHTIVSGYLAFGSDESYKNHWDTRDVYAIQLFGKKRWQLTAPDFPMPLYMQQTKDTDISIPEHIDMDIILEAGDVLYIPRGWWHRPIPLGCETFHFAVGTFPPNGYNYLEWLMKKFPTIESLRHSFSDWEQDRTRINDTAAQIAAMIADPVNYEAFSEDFLGKERTDTAFHLEQFANPNATPLSDDVRLRLNANNLDTLEKGYLIGNGMKISVDELGKKVLEHIGKNEPLLLKNLLVNFNQAKHEEVRKLIYQLIELDFLEIL
LHRILKVVFPKRKIVLWVIGGDLHLEVEKGRYRVDVLKSLQYLLVEGQAMKDALCGQGVENVKVMPNFKDISLFSPLHCHTPYTPSKVLRLVFFSRIMPDKGCDLILDLAHKLNERGYKDKFVIDFYGPIAPDYSKRFSSILDTLPNVHYQGTLD
MKDLDFSKKPLIGVVHLKPLPGSPRYGGDFEEVIEWAIRDAKTYEEAGFDGIIVENFGDSPFSKTLPREVIPAFTVVAKAVKKEVSLPLGINALRNDCIVAYSIAHAVGGSFIRVNVLTGVAFTDQGIIEGCARELWNVKRIIGGDILTLADVHVKHAVHFTNFEDAVKDTVERGLADGIIVTGRRTGESISLEDLILAKRVSSIPVLVGSGVNPRNFRTLFKYADGFIVGTWVKENGKINNPVSLERAKILVRMKNSLMGVLEHHHHHH
MGSDKIHHHHHHMSEKQTTILIINMASDFGGGEIQTEELMLNLTNYNICFFGKSSGKFIPRLKEKAPHIKIVNLWEMLKLVFCCSSLIIHAQDGRGAHIAGFLKKISGRPVVITRHVSFPFKRKFSLSSYKNADMLVGVSQQVTENLKLLNSNCRTIYGCIKPLLENAEFEQRYFVKKHILAIAHIGNLQAVKNFQLTLSLAKNFSQIQFFIVGSGELEQELKQQAINLPNITFIPFTPYIGSVFKKVDLQIVPSHSEGLGAVILEGYQYRVSVIAHQTGGISEIVQNEKTGFLVENNDPMIYHKILTTLLDNPQKLCELKQNVERYIFEHDFSARRMALEYEQVYSAILANRTQK
MKKYDVIVVGAGISGLLAALTLSKHGKKVLVLEKGQHLGGNCNSYIVDGYQVDTGAHAITHLIEGPLPRLMDNYFDFLPVFEDYGYYYVRTENALIKVPSNLKDFVTFDVLPRKDRLILSQTLTKALTLSSFGIDLSDQSVYDFLPKNLCKDTYDFVNTISAFLSGKSMKETSAQRILSGSSFVRDSITQEQFDAMIGKFEPKKRQSTESILSSILPYHLHASLQARVDKVAQPFTSLERLATNKVNYSQGYPRKGLKALLNAILYSFPDTVEIKSECEVTGILVESEKVYGVEADEIYLADLIIYTGFATDLPELIKDLPQAYIEELKGIVHTKSLTIWLGLKEELPEFKYTGSEIWFKDFAYWAMPISNYDPSLAPKDKQLVGFSFVIDSEQTEEHELKKAYDTIFRALPNIEKYIDMQHEQIMIPEKAAVTINGKFSDIRTPVKNLYIAGTDTDRRSMGITRAAYSIIELLKILNEDGNLHLEHHHHHH
MSRTIMLIPISAGVGLTSVSMGLLRAMERKGVSVSFYKPIAQPRTGDDQPDLTSTVMSRNSDIKIGQPMSMSAAETLIGSEKMDVLLETVVERYNQINKDAEVTLIEGLVPTRKHPFANQVNAEIANTLGAEIVFVATPGTDNPTQLKERIEVACSNFGGTKNKSISGVIINKLNAPVDEAGRTRPDLSEIFDDADHAKQANLEVMQIFNTSPIRVLGCVPWSIDLIATRAIDMAKHLKAE
MGSDKIHHHHHHMFDRYEAGETAVLVHIDFSDEERREDLVELQLLVESAGARSVGVITGSRRSPDRKFFIGSGKAEELAALVAATEANVVIFNHALSPAQERNLEQVCQCRVLDRTSLILDIFAQRARTHEGKLQVELAQLRHMSTRLVRGWTHLERQKGGIGLRGPGETQLETDRRLLRGRIKNINKRLERVDKQREQSRRARKRSDMPTVSLVGYTNAGKSTLFNALTSSDVYAADQLFATLDPTLRKLDLPDGAVILADTVGFIRHLPHDLVAAFKATLQETRQAELLLHIVDCADENMADNFEQVQSVLKEIDADEVMQLIVCNKIDLLEDVTPRIEYDDRGKPVRVWVSAHKRLGFDLLLKAITELIGEVIHEFTLRIPATAGHYLGQFYRLDAIQQKEYDDLGNCILSVRLSDADWRRLAKQSQGELETFIFDPSIEKAVC
GPGSMTLYSIYIFNRYGDNIFYKEWNRTTAPQEGEAGLVAGFIYTLQHFSSQLSSSGEGGFYAVRTPLYKLHYNETMTGYRVALLSDKDLKTDVVQNILRKMFSDVFQRYVTKDPNYSHTQGRVITSTAFGEALDQFFHSQKIL
MNVLVIGRGGREHALAWKFAQSEKVEKVYVAPGNEGMRDVATPIDIDENDFDALVLFAKENHVELTFVGPEIPLMNGIVDRFKEEGLRVFGPNKAAAVIEGSKAFTKELMKKYNIPTAAYETFTDYEEAVQYIEKVGAPIVIKADGLAAGKGVTVAMTLEEALQAAKEMLQDVKFGEASKKVVIEEFLDGQEFSLMAFVNGTTVHPMVIAQDHKRAFDGDKGPNTGGMGAYSPVPQISESAVQEAIETVLYPTAKAMIQENRSFTGILYAGLILTNDGPKVIEFNARFGDPETEVVLPRLENDLVDVCNAVLDESELTLQWSDEAVIGVVLAAKGYPEAYKKGDIIKGLDALQDVIVFHAGTAMKRGDFVTNGGRVLFVACKANSLQEAKDKVYKEIGKIESDVLFYRSDIGYRAIGHEMTRS
GPGSMEYVGALYKDYGELLSTAQNSFLNVQSDVEGVEDVKNICARLHISIHRWEHSEELYAVRNQLHLQTQVLKAHSDHSSRVLQECVQRDELIKMHTEKSALLATKLRKQSSEVDKLQKECDKLDRKIAKRSEVAQKDLDAMAVKSTATVLSLTSQFFKVMHKNGAFIADRFSPDRAGVGAHDFDTASDDAVTGTLRRLHSVRSEMSSVAPSAVYGQNYNTFHPSEADTRVSDGARNSGIPLRYETSVPPAMSA

Soluble on expression in E. coli, soluble:
MSLSEKVTIYDIAEKLNITAATVSRALNNNPKIKESTRELVIKTAASMNYKQNKLALALKSGRSNNIGVIVPRIDSNFFASVIRGIEEELQPHGYQVIICQTHESKQRENENLYTLIDAQVDGILMSVTDVTSENDDAFNNVLQKNVPLIFFDRSKHIDGVSSVTINDFRGGYLTTKHLINEGCRYIAHFSGDQSLEIFKNRFLGYKQALLDHGIEFKEEYVIPVKSMVDAGKEAVDKLLQLETPPDAIFSSSDFAALGAIQELKERNISIPNEFCVAGFSNEPFTKFMELSITSVDQSPLEMGKMAARVFLEQVDKTDTIKIEKKVVLAPELHIRKSSSRTNFEGHHHHHH
GASMDAIKKKMQMLKLDKENALDRAEQAEADKDFYFGKLRNIELICQENEGENDPVLQRIVDILYATDEGFVIPD
MSLSLIKVGLVGIGAQMQENLLPSLLQMQDIRIVAACDSDLERARRVHRFISDIPVLDNVPAMLNQVPLDAVVMAGPPQLHFEMGLLAMSKGVNVFVEKPPCATLEELETLIDAARRSDVVSGVGMNFKFARPVRQLREMTQVDEFGETLHIQLNHYANKPRAPLWGLDSTLRSFLLAQAIHTIDLAITFGDGELRRVQSSVQRHDDALIVRADMAFSSGATASLLAGTSFPYFEFDMKLVSSSSTLVELDNLWNITLHEPEHATRPTGAAKRWRGAWQPGPLDSGYERSGYHGELHQFFQAIREHRRFEADFASLLPTYRVIEEICSADAVAQGLQNAHSRIRTGIESLSEGHHHHHH
MAHHHHHHMGNGASVGENRHSQLFQQGYKSLQEGRYTYAEIYYDQAIERHEGHSFWTRLDDLIEWERRDKAGQKGTDAKQKTAYRDGGQEEAAFPEVRKDSLKEENEVNVEMGEAAGVGGSGKIEIPLDSRLADVVDYLVLRADIAESYMAEGRYEEATPHMDFLSSHTRVMLKFLQIARMTKAEESANSSNPLEGSTADAGADNAGGGNRRAHQGFMMVSDVERDSILDCFEQFLRMHWVSAMANSVFIVSERFKKGKSEKKHKKELDTAVVACAKIQEELYNVAKRRARSLSNSVVLSFLEGIMEELDAESSTTSITNERMGTANGKTRTNTLFEEQNNRSTGNRSANEIDMLTDRDECPIKVHLQMVYDRRSLCREVPAPQQAPTLRYITWIDDEIRRVVPGTNYNLEIQCGMVDEKRKKQLQKRSLKFAAQRNCNYNDRVLLGKSFDEENALLLFPVFLIQADVQFELGAATKGINALDIVDKLSTQLYGVGSLERQSIMRSVMESRKRGGSLFMMFED
MSLRPRVLLVEDSTSLAILYKQYVKDEPYDIFHVETGRDAIQFIERSKPQLIILDLKLPDMSGEDVLDWINQNDIPTSVIIATAHGSVDLAVNLIQKGAEDFLEKPINADRLKTSVALHLKRAKLEDLVENIQSTFDRHNYHGFIGSSLPMQAVYKTIDAVAPTSASVFIVGESGTGKEVCAEAVHRQSDRRDKPFIAINCGAIPRDLMESEIFGHVKGAFTGATTDRKGAATLAHGGTLFLDELCEMELEMQKTLLRFLQTGTYTPLGGTKEMKVDVRIICATNRDPLTEVEEGRFREDLYYRVHVVPIDMPPLRERGSDIVTLAKHFLTTYAKEDKKKFSNIDTEAQHVIKHYEWPGNVRQLQNIIRNIVVLNNDEKVTVAHLPAQLTQKKTQARTVTPVHVEGHHHHHH
MSLSKVLYIQDHDVTWIQFNRPEKRNAIDEETMDQFAEALAQAKGDQSKVIIVTGAGEKAFCAGGDLSSFHKLKTESEAKAMLAKMAKILLDVYYCPKLTVAALNGAAVGGGCEIAAACDIRLAAPHSKFGFIQGTLGITTGWGGTSFLMTRVQPHVSLEMTMTGKVYSSDVGENLGFIQKVIQKIPFREGVKEWLGLYTVLDQEVLIAYKERHLDRISRKELIWRIEREVAKCAQLWERDAHHEAVDAFLREGHHHHHH
MGKNEILWGIAPIGWRNDDMPEIGAGNTLQHLLSDIVVARFQGTEVGGFFPEPAILNKELKLRNLRIAGKWFSSFILRDGLGEAAKTFTLHCEYLQQVNADVAVVSEQTYSVQSLEKNVFTEKPHFTDDEWERLCEGLNHLGEIAAQHGLKLVYHHHLGTGVQTAEEVDRLMAGTDPAHVHLLYDTGHAYISDGDYMGMLEKHIGRIKHVHFKDARLNVMEQCRLEGQSFRQSFLKGMFTVPGDGCIDFREVYQLLLKHSYSGWIVIEAEQDPDVANPLEYALIARNYIDQQLLDLAMGHHHHHHSH
SVAADSAATESLGRIGSLSQVSGVLGCQWGDEGKGKLVDILAQHFDIVARCQGGANAGHTIYNSEGKKFALHLVPSGILNEDTTCVIGNGVVVHLPGLFKEIDGLESNGVSCKGRILVSDRAHLLFDFHQEVDGLRESELAKSFIGTTKRGIGPAYSSKVIRNGIRVGDLRHMDTLPQKLDLLLSDAAARFQGFKYTPEMLREEVEAYKRYADRLEPYITDTVHFINDSISQKKKVLVEGGQATMLDIDFGTYPFVTSSSPSAGGICTGLGIAPSVVGDLIGVVKAYTTRVGSGPFPTENLGTGGDLLRLAGQEFGTTTGRPRRCGWLDIVALKFSCQINGFASLNLTKLDVLSDLNEIQLGVAYKRSDGTPVKSFPGDLRLLEELHVEYEVLPGWKSDISSVRNYSDLPKAAQQYVERIEELVGVPIHYIGIGPGRDALIYK
MGHHHHHHSHMRVFIIHLSPKTCQNFSLKETHITPLLESLKLQGISYEIFDAIYSKISPTQLHPLILEHLHPSFMVEDLWAFCKNKKHPPCALKNFFYAIKHCGKRMGFGELGCYASHYSLWQKCIELNEAICILEDDIIIKDRFKESLEFCRHHINELGYIRLMHLEENVAKQKTPVKGVSQILNFKDGIGTQGYVLAPKAAQKLLKYSAKEWVMPIDCVMDRHYWHGVKNYVLEEFAIACDGMNAQNSNTEKQRPKKLPLSIRIGRSLHKSTIKFLDKVFRYSPKLIRIGKH
